Experimental data: patent publication EP4729546A1 (Jiangsu BioJeTay Biotechnology Co., Ltd., dated 2026)
Positions count from the first letter of the chain named. One block for each binder: values may come before it.

Legend:
[1] = molecular target: huFXII-his (human) (UniProt P00748); test: cell-based or functional assay
[2] = molecular target: huFXII-his (human) (UniProt P00748); test: ELISA, huFXII-his coated at 1 µg/ml, HRP anti-human secondary, OD450
[3] = molecular target: T1, huFXII-his (human, UniProt P00748 20-615); test: cell-based or functional assay
T1 sequence (looked up): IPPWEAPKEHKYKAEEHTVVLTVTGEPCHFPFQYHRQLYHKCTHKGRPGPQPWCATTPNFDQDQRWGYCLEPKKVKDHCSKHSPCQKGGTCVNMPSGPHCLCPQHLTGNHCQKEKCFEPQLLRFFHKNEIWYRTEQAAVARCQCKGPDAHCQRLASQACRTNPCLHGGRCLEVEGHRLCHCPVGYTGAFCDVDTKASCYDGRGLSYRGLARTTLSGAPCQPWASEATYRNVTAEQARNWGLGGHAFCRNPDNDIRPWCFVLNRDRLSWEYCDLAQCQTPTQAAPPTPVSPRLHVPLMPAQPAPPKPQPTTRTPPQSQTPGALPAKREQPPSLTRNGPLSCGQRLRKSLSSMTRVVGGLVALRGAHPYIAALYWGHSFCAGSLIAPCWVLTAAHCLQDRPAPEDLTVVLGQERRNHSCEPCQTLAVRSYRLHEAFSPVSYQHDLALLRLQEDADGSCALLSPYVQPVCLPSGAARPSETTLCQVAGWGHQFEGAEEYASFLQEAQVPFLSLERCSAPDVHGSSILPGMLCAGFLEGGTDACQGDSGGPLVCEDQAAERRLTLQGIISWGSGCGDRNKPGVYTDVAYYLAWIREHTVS

IC50 of inhibition of cleavage of chemical substrate S2302 by FXIIa (OD405) [1]: 0.0178 µg/mL | EC50 [2]: 0.164 µg/mL
B1: FX-Y17-Y2 (antibody, V domains shown)
VH: EVQLLESGGGLVQPGGSLRLSCAGSGFSFGSQTMSWVRQAPGKGLEWVSSISHISGRTYYADSVKGRFTISRDNSKNTLYLQMNSLRAEDTAVYYCTKSHAFDVWGQGTMVTVSS
VL: EIVLTQSPATLSVSPGERATLSCRASQSVYSALAWYQQKPGQAPRLLIYGASTRATGIPARFSGSGSGTEFTLTISSLQSEDFAVYYCQQNNKWPLSFGGGTKVEIK

IC50 of inhibition of cleavage of chemical substrate S2302 by FXIIa (OD405) [1]: 0.0154 µg/mL | EC50 [2]: 0.216 µg/mL
B2: FX-Y17-Y3 (antibody, V domains shown)
VH: B1 VH with H53Y
VL: B1 VL with Y30W, A32N, N91Y, N92H

IC50 of inhibition of cleavage of chemical substrate S2302 by FXIIa (OD405) [1]: 0.0156 µg/mL | EC50 [2]: 0.117 µg/mL
B3: FX-Y17-Y31 (antibody, V domains shown)
VH: B1 VH with H53V, T58N, T97A
VL: B1 VL with Y30W, A32N, N91Y, N92H

IC50 of inhibition of cleavage of chemical substrate S2302 by FXIIa (OD405) [3]: 0.0139 µg/mL
B4: FX-Y17-Y35 (antibody, V domains shown)
VH: B1 VH with H53V, T58D, T97A
VL: B1 VL with N91Y, N92H

IC50 of inhibition of cleavage of chemical substrate S2302 by FXIIa (OD405) [1]: 0.0138 µg/mL | EC50 [2]: 0.14 µg/mL
B5: FX-Y17-Y14 (antibody, V domains shown)
VH: B1 VH with A101R
VL: B1 VL

IC50 of inhibition of cleavage of chemical substrate S2302 by FXIIa (OD405) [1]: 0.0259 µg/mL | EC50 [2]: 0.128 µg/mL
B6: FX-Y17-Y13 (antibody, V domains shown)
VH: B1 VH with H53V, G56R, K98R
VL: B1 VL with A32N, N91Y, N92H

IC50 of inhibition of cleavage of chemical substrate S2302 by FXIIa (OD405) [1]: 0.0202 µg/mL | EC50 [2]: 0.131 µg/mL
B7: FX-Y17-Y15 (antibody, V domains shown)
VH: B1 VH with H53V, T58P
VL: B1 VL with N91Y, N92H

IC50 of inhibition of cleavage of chemical substrate S2302 by FXIIa (OD405) [3]: 0.0157 µg/mL
B8: FX-Y17-Y6 (antibody, V domains shown)
VH: B1 VH with H53Y
VL: B1 VL with N91Y, N92H

IC50 of inhibition of cleavage of chemical substrate S2302 by FXIIa (OD405) [1]: 0.021 µg/mL | EC50 [2]: 0.125 µg/mL
B9: FX-Y17-Y16 (antibody, V domains shown)
VH: B1 VH with H53V, T58S, T97A
VL: B1 VL with N91Y, N92H

IC50 of inhibition of cleavage of chemical substrate S2302 by FXIIa (OD405) [1]: 0.0196 µg/mL | EC50 [2]: 0.237 µg/mL
B10: FX-Y17-Y8 (antibody, V domains shown)
VH: B1 VH with H53V, G56R
VL: B1 VL with Y30W, A32N, N91Y, N92H

IC50 of inhibition of cleavage of chemical substrate S2302 by FXIIa (OD405) [1]: 0.0296 µg/mL | EC50 [2]: 0.364 µg/mL
B11: FX-Y17-Y12 (antibody, V domains shown)
VH: B1 VH with H53V, S99W
VL: B1 VL with V29L, A32H, N91Y, N92K

IC50 of inhibition of cleavage of chemical substrate S2302 by FXIIa (OD405) [1]: 0.0187 µg/mL | EC50 [2]: 0.127 µg/mL
B12: FX-Y17-Y20 (antibody, V domains shown)
VH: B1 VH with H53V, T58S
VL: B1 VL with N91Y, N92H

IC50 of inhibition of cleavage of chemical substrate S2302 by FXIIa (OD405) [3]: 0.0155 µg/mL
B13: FX-Y17-Y36 (antibody, V domains shown)
VH: B1 VH with H53V, G56K
VL: B1 VL with N91Y, N92H

IC50 of inhibition of cleavage of chemical substrate S2302 by FXIIa (OD405) [1]: 0.0202 µg/mL | EC50 [2]: 0.187 µg/mL
B14: FX-Y17-Y22 (antibody, V domains shown)
VH: B1 VH with H53Y, K98R
VL: B1 VL with Y30W, A32N, N91Y, N92H

IC50 of inhibition of cleavage of chemical substrate S2302 by FXIIa (OD405) [3]: 0.0267 µg/mL
B15: FX-Y17-Y28 (antibody, V domains shown)
VH: B1 VH with H53V, S99Q
VL: B1 VL with N91Y, N92H

IC50 of inhibition of cleavage of chemical substrate S2302 by FXIIa (OD405) [1]: 0.0155 µg/mL | EC50 [2]: 0.0781 µg/mL
B16: FX-Y17-Y40 (antibody, V domains shown)
VH: B1 VH with H53V, S99A
VL: B1 VL with Y30W, A32N, N91Y, N92H

IC50 of inhibition of cleavage of chemical substrate S2302 by FXIIa (OD405) [1]: 0.0129 µg/mL | EC50 [2]: 0.0942 µg/mL
B17: FX-Y17-Y23 (antibody, V domains shown)
VH: B1 VH with H53V, T58S, K98R
VL: B1 VL with Y30W, A32N, N91Y, N92H

IC50 of inhibition of cleavage of chemical substrate S2302 by FXIIa (OD405) [1]: 0.02 µg/mL | EC50 [2]: 0.136 µg/mL
B18: FX-Y17-Y7 (antibody, V domains shown)
VH: B1 VH with H53V, T58A
VL: B1 VL with N91Y, N92H

IC50 of inhibition of cleavage of chemical substrate S2302 by FXIIa (OD405) [1]: 0.0237 µg/mL | EC50 [2]: 0.151 µg/mL
B19: FX-Y17-Y1 (antibody, V domains shown)
VH: B1 VH with H53V, G56R
VL: B1 VL with N91Y, N92H

IC50 of inhibition of cleavage of chemical substrate S2302 by FXIIa (OD405) [1]: 0.0244 µg/mL | EC50 [2]: 0.228 µg/mL
B20: FX-Y17-Y9 (antibody, V domains shown)
VH: B1 VH with H53V, T58K, T97A
VL: B1 VL with N91Y, N92H

IC50 of inhibition of cleavage of chemical substrate S2302 by FXIIa (OD405) [3]: 0.0177 µg/mL
B21: FX-Y17-Y42 (antibody, V domains shown)
VH: B1 VH with F29L, H53V, T58M
VL: B1 VL with N91Y, N92H

IC50 of inhibition of cleavage of chemical substrate S2302 by FXIIa (OD405) [1]: 0.0132 µg/mL | EC50 [2]: 0.101 µg/mL
B22: FX-Y17-Y21 (antibody, V domains shown)
VH: B1 VH with T97A
VL: B1 VL

IC50 of inhibition of cleavage of chemical substrate S2302 by FXIIa (OD405) [3]: 0.022 µg/mL
B23: FX-Y17-Y33 (antibody, V domains shown)
VH: B1 VH with H53V, T58K
VL: B1 VL with N91Y, N92H

IC50 of inhibition of cleavage of chemical substrate S2302 by FXIIa (OD405) [3]: 0.016 µg/mL
B24: FX-Y17-Y38 (antibody, V domains shown)
VH: B1 VH with H53V, G56R, T97A
VL: B1 VL with N91Y, N92H

IC50 of inhibition of cleavage of chemical substrate S2302 by FXIIa (OD405) [1]: 0.028 µg/mL | EC50 [2]: 0.161 µg/mL
B25: FX-Y17-Y10 (antibody, V domains shown)
VH: B1 VH with H53V, T58A, S99A
VL: B1 VL with N91Y, N92H

IC50 of inhibition of cleavage of chemical substrate S2302 by FXIIa (OD405) [1]: 0.0127 µg/mL | EC50 [2]: 0.083 µg/mL
B26: FX-Y17-Y30 (antibody, V domains shown)
VH: B1 VH with H53V, T97A
VL: B1 VL with Y30F, A32N, N91Y, N92H, K93W

IC50 of inhibition of cleavage of chemical substrate S2302 by FXIIa (OD405) [1]: 0.0143 µg/mL | EC50 [2]: 0.0629 µg/mL
B27: FX-Y17-Y37 (antibody, V domains shown)
VH: B1 VH with H53V, T58S
VL: B1 VL with Y30W, A32N, N91Y, N92H

IC50 of inhibition of cleavage of chemical substrate S2302 by FXIIa (OD405) [1]: 0.0242 µg/mL | EC50 [2]: 0.172 µg/mL
B28: FX-Y17-Y18 (antibody, V domains shown)
VH: B1 VH with H53V, T58S, S99H
VL: B1 VL with Y30W, A32N, N91Y, N92H

IC50 of inhibition of cleavage of chemical substrate S2302 by FXIIa (OD405) [1]: 0.0199 µg/mL | EC50 [2]: 0.169 µg/mL
B29: FX-Y17-Y17 (antibody, V domains shown)
VH: B1 VH with H53Y, S99G
VL: B1 VL with Y30W, A32N, N91Y, N92H

IC50 of inhibition of cleavage of chemical substrate S2302 by FXIIa (OD405) [1]: 0.0321 µg/mL | EC50 [2]: 0.257 µg/mL
B30: FX-Y17-Y46 (antibody, V domains shown)
VH: B1 VH with H53Y, S99G
VL: B1 VL with Y30W, A32N, N91Y, N92Q

IC50 of inhibition of cleavage of chemical substrate S2302 by FXIIa (OD405) [1]: 0.0254 µg/mL | EC50 [2]: 0.167 µg/mL
B31: FX-Y17-Y5 (antibody, V domains shown)
VH: B1 VH with H53V, T58Y
VL: B1 VL with N91Y, N92H

IC50 of inhibition of cleavage of chemical substrate S2302 by FXIIa (OD405) [3]: 0.0422 µg/mL
B32: FX-Y17-Y39 (antibody, V domains shown)
VH: B1 VH with A101D
VL: B1 VL

IC50 of inhibition of cleavage of chemical substrate S2302 by FXIIa (OD405) [3]: 0.019 µg/mL
B33: FX-Y17-Y41 (antibody, V domains shown)
VH: B1 VH with H53V, T58R, T97A
VL: B1 VL with N91Y, N92H

IC50 of inhibition of cleavage of chemical substrate S2302 by FXIIa (OD405) [1]: 0.0214 µg/mL | EC50 [2]: 0.149 µg/mL
B34: FX-Y17-Y19 (antibody, V domains shown)
VH: B1 VH with H53V, G56K, K98R
VL: B1 VL with N91Y, N92H

IC50 of inhibition of cleavage of chemical substrate S2302 by FXIIa (OD405) [3]: 0.0146 µg/mL
B35: FX-Y17-Y43 (antibody, V domains shown)
VH: B1 VH with I51S, H53V, K98R
VL: B1 VL with N91Y, N92H
